What all share (conditions): 100 mM Tris-HCl pH 7, 15 mM MgCl2, 37 °C
Substrate in the series “steady-state kinetics”: O=P(O)(O)OC[C@H]1OC(O)[C@H](O)[C@@H](O)[C@@H]1O
Briefly: steady-state kinetics. The class given is biochemical, Bacillus subtilis.

Substrate in series [1]: O=C(CO)[C@@H](O)[C@H](O)COP(=O)(O)O
Briefly: purified protein.

Substrate in series [2]: O=P(O)(O)O[C@H]1O[C@H](CO)[C@H](O)[C@H](O)[C@H]1O
Nature of the series: purified protein.

Substrate in series [3]: O=[N+]([O-])c1ccc(OP(=O)(O)O)cc1
Briefly: purified protein.

The source of these data is article PMC3207120.

B1: AraL (recombinant AraL-His6, pLG11) (Bacillus subtilis subsp. subtilis str. 168; V11M) (protein)
chain: MSPAGILIDLDGTVFRGNELIEGAREAIKTLRRMGKKIVFLSNRGNISRAMCRKKLLGAGIETDVNDIVLSSSVTAAFLKKHYRFSKVWVLGEQGLVDELRLAGVQNASEPKEADWLVISLHETLTYDDLNQAFQAAAGGARIIATNKDRSFPNEDGNAIDVAGMIGAIETSAQAKTELVVGKPSWLMAEAACTAMGLSAHECMIIGDSIESDIAMGKLYGMKSALVLTGSAKQGEQRLYTPDYVLDSIKDVTKLAEEGILI
As to B1, the Km (commonly the concentration of substrate that gives half-maximal velocity) in the series “steady-state kinetics” was 24.96 ± 4.08 mM; in the series “purified protein [1]”, 29.14 ± 4.87 mM; in the series “purified protein [2]” it was 40.74 ± 6.03 mM; in the series “purified protein [3]” it was 50.00 ± 23.32 mM. In addition, the catalytic constant (kcat) (as a rule, the number of substrate molecules converted per active site and unit of time at saturation) was 2.49 ± 0.26 s⁻¹ in the series “steady-state kinetics”, 2.75 ± 0.26 s⁻¹ in the series “purified protein [1]”, 4.28 ± 0.4 s⁻¹ in the series “purified protein [2]” and 0.012 ± 0.0006 s⁻¹ in the series “purified protein [3]”. Besides, the kcat/Km (usually the turnover number divided by the Michaelis constant) in “steady-state kinetics” was determined as 99.8 M⁻¹ s⁻¹; in “purified protein [1]” it was 94.3 M⁻¹ s⁻¹; in “purified protein [2]” it was 102 M⁻¹ s⁻¹; in “purified protein [3]”, 0.24 M⁻¹ s⁻¹.
